Results on 6 molecules are retold here after US9994881B2, “Functionalized carboxylic acids and alcohols by reverse fatty acid oxidation in engineered microbes” (William Marsh Rice University, priority 2011, dated 2018).

Marks after values point to notes of the source that are not given here.

The nature of data set [1]: thioesterase activity (production of TNB at 412 nm). Format: biochemical. To be noted: crude cell extract; 200 μM substrate; expressed from pCA24N. An excerpt: (§1) For AtoB and thioesterase characterization assays, the pCA24N-gene (-gfp) plasmids from the ASKA collection^44 were used. For expression of E. gracilis TER for kinetic characterization, the egTER gene was cloned into pTrcHis2A using the In-Fusion protocol (Clontech Laboratories, Inc., Mountain View, Calif.) following PCR amplification from the aforementioned codon-optimized egTER containing plasmid with the primer pair of F1pTH6hisEgter and R1pTH6hisEgter (Supplementary Table S3).
(§2) Cultures for enzymatic assays were grown overnight in 100 mL of LB media at 37° C. in 250 mL baffled flasks (Wheaton Industries, Inc., Millville, N.J.) in E. coli BL21 (DE3) cells induced with either 1 mM IPTG (pCA24N, pTrcHis2A) or 1 mM Arabinose (pUCBB-pBAD) at an OD600˜0.6, or expressed constitutively (pUCBB-ntH6). Reactions were monitored on either a Synergy HT plate reader (BioTek Instruments, Inc., Winooski, Vt.) at 25° C. (for reactions monitored at 300 nm or higher) or in a Biomate 5 Spectrophotometer (Thermo Scientific, Waltham, Mass.) for reactions at 263 nm.
(§3) For specific activity assays (reported in μmol substrate/mg protein/min) these supernatant fractions were utilized and protein concentration was established using the Bradford Reagent (Thermo Scientific, Waltham, Mass.) using BSA as the protein standard. Linearity was established for each reaction and the background non-enzymatic rate was subtracted to establish the activity.
(§4) Thioesterase activity was monitored by following the production of TNB at 412 nm ([…])^30. Reactions were carried out in the presence of 100 mM Tris pH 7.5, 200 mM KCl, […] DTNB and 200 μM of the ‘-CoA’ substrate in a volume of 200 μL at 25° C.

Assay in data set [2]: as above
Format: biochemical. Particulars: expressed from pCA24N; for Specific activities of selected thioesterases on Acetoacetyl-CoA / Specific activities of selected thioesterases on Acetyl-CoA / Specific activities of selected thioesterases on Butyryl-CoA / Specific activities of selected thioesterases on Crotonyl-CoA / Specific activities of selected thioesterases on RS-3-Hydroxybutyryl-CoA: crude cell extract, 200 μM substrate; for Specific Activity: Table 1.
Description: as §1, §2, §3
For kinetic characterization, an appropriate amount of enzyme was established by checking linear range near predicted KM values. Then, the rates were measured for a range of substrates in order to establish kcat and KM. In the cases of FadB for the crotonase reaction and FadA in the “forward” thiolase reaction coupled with HBD, substrate saturation could not be established, as such, the kcat/KM for the reaction was determined by dividing the linear slope of Velocity vs. [Substrate] by the amount of enzyme used in the assays. For reactions that could be saturated, Velocity vs. [Substrate] was fitted by the EnzKIN Matlab module (mathworks.com/matlabcentral/fileexchange/26653) to establish Vmax and KM.
as §4

B1: TesB: E. coli thioesterase II (protein, UniProt P0AGG2 2-286, looked up)
Acyl-CoA thioesterase 2: SQALKNLLTLLNLEKIEEGLFRGQSEDLGLRQVFGGQVVGQALYAAKETVPEERLVHSFHSYFLRPGDSKKPIIYDVETLRDGNSFSARRVAAIQNGKPIFYMTASFQAPEAGFEHQKTMPSAPAPDGLPSETQIAQSLAHLLPPVLKDKFICDRPLEVRPVEFHNPLKGHVAEPHRQVWIRANGSVPDDLRVHQYLLGYASDLNFLPVALQPHGIGFLEPGIQIATIDHSMWFHRPFNLNEWLLYSVESTSASSARGFVRGEFYTQDGVLVASTVQEGVMRNHN
For the molecule B1, in data set [1], the “Specific activities of selected thioesterases on Decanyl-CoA” value was 0.6 ± 0.1 μmol/mg protein/min. For the same molecule, in data set [2], the “Specific activities of selected thioesterases on Acetoacetyl-CoA” value came out at 0.056 ± 0.001 μmol/mg protein/min, the “Specific activities of selected thioesterases on Acetyl-CoA” value was 0.030 ± 0.001 μmol/mg protein/min, the “Specific activities of selected thioesterases on Butyryl-CoA” value was 0.101 ± 0.002 μmol/mg protein/min and the “Specific activities of selected thioesterases on Crotonyl-CoA” value is given as 0.010 ± 0.001 μmol/mg protein/min. In addition, the “Specific activities of selected thioesterases on RS-3-Hydroxybutyryl-CoA” value in data set [2] is on record as 0.032 ± 0.002 μmol/mg protein/min.

B2: TesA: E. coli multifunctional acyl-CoA thioesterase I and protease I and lysophospholipase L1 (protein, UniProt P0ADA1 27-208, looked up)
Thioesterase 1/protease …: ADTLLILGDSLSAGYRMSASAAWPALLNDKWQSKTSVVNASISGDTSQQGLARLPALLKQHQPRWVLVELGGNDGLRGFQPQQTEQTLRQILQDVKAANAEPLLMQIRLPANYGRRYNEAFSAIYPKLAKEFDVPLLPFFMEEVYLKPQWMQDDGIHPNRDAQPFIADWMAKQLQPLVNHDS
For B2, the “Specific activities of selected thioesterases on Decanyl-CoA” value in data set [1] turned out to be 0.47 ± 0.04 μmol/mg protein/min. Also, in data set [2], the “Specific activities of selected thioesterases on Acetoacetyl-CoA” value stood at 0.044 ± 0.005 μmol/mg protein/min, the “Specific activities of selected thioesterases on Acetyl-CoA” value was 0.036 ± 0.002 μmol/mg protein/min, the “Specific activities of selected thioesterases on Butyryl-CoA” value was determined as 0.049 ± 0.002 μmol/mg protein/min and the “Specific activities of selected thioesterases on Crotonyl-CoA” value was determined as 0.007 ± 0.003 μmol/mg protein/min. Moreover, the “Specific activities of selected thioesterases on RS-3-Hydroxybutyryl-CoA” value in data set [2] turned out to be 0.02 ± 0.01 μmol/mg protein/min.

B3: YdiI: E. coli Acyl-CoA thioesterase (protein, UniProt P77781 1-136, looked up)
1,4-dihydroxy-2-naphthoyl-CoA …: MIWKRKITLEALNAMGEGNMVGFLDIRFEHIGDDTLEATMPVDSRTKQPFGLLHGGASVVLAESIGSVAGYLCTEGEQKVVGLEINANHVRSAREGRVRGVCKPLHLGSRHQVWQIEIFDEKGRLCCSSRLTTAIL
Take B3: the “Specific activities of selected thioesterases on Decanyl-CoA” value in data set [1] amounted to 0.18 ± 0.04 μmol/mg protein/min. Moreover, in data set [2], the “Specific activities of selected thioesterases on Acetoacetyl-CoA” value is reported as 0.047 ± 0.001 μmol/mg protein/min, the “Specific activities of selected thioesterases on Acetyl-CoA” value worked out at 0.036 ± 0.003 μmol/mg protein/min, the “Specific activities of selected thioesterases on Butyryl-CoA” value turned out to be 0.0917 ± 0.0007 μmol/mg protein/min and the “Specific activities of selected thioesterases on Crotonyl-CoA” value turned out to be 0.078 ± 0.005 μmol/mg protein/min. Besides, the “Specific activities of selected thioesterases on RS-3-Hydroxybutyryl-CoA” value in data set [2] was 0.012 ± 0.002 μmol/mg protein/min.

B4: YbgC: E. coli Acyl-CoA thioesterase (protein, UniProt P0A8Z3 1-134, looked up)
Acyl-CoA thioester hydrolase …: MNTTLFRWPVRVYYEDTDAGGVVYHASYVAFYERARTEMLRHHHFSQQALMAERVAFVVRKMTVEYYAPARLDDMLEIQTEITSMRGTSLVFTQRIVNAENTLLNEAEVLVVCVDPLKMKPRALPKSIVAEFKQ
For B4, in data set [1], the “Specific activities of selected thioesterases on Decanyl-CoA” value worked out at 0.06 ± 0.02 μmol/mg protein/min. Further, in data set [2], the “Specific activities of selected thioesterases on Acetoacetyl-CoA” value came to 0.065 ± 0.002 μmol/mg protein/min, the “Specific activities of selected thioesterases on Acetyl-CoA” value was found to be 0.036 ± 0.002 μmol/mg protein/min, the “Specific activities of selected thioesterases on Butyryl-CoA” value came to 0.045 ± 0.007 μmol/mg protein/min and the “Specific activities of selected thioesterases on Crotonyl-CoA” value was determined as 0.006 ± 0.001 μmol/mg protein/min. Further, the “Specific activities of selected thioesterases on RS-3-Hydroxybutyryl-CoA” value in data set [2] is 0.016 ± 0.004 μmol/mg protein/min.

B5: YciA: E. coli acyl-CoA thioesterase (protein, UniProt P0A8Z0 1-132, looked up)
Acyl-CoA thioester hydrolase …: MSTTHNVPQGDLVLRTLAMPADTNANGDIFGGWLMSQMDIGGAILAKEIAHGRVVTVRVEGMTFLRPVAVGDVVCCYARCVQKGTTSVSINIEVWVKKVASEPIGQRYKATEALFKYVAVDPEGKPRALPVE
As for B5, the “Specific activities of selected thioesterases on Decanyl-CoA” value in data set [1] came to 3.7 ± 0.3 μmol/mg protein/min. In data set [2], the “Specific activities of selected thioesterases on Acetoacetyl-CoA” value is listed as 0.672 ± 0.007 μmol/mg protein/min. The “Specific activities of selected thioesterases on Acetyl-CoA” value in data set [2] is 0.222 ± 0.007 μmol/mg protein/min. For the same molecule, the “Specific activities of selected thioesterases on Butyryl-CoA” value in data set [2] is listed as 2.9 ± 0.2 μmol/mg protein/min. Also, the “Specific activities of selected thioesterases on Crotonyl-CoA” value in data set [2] is 0.27 ± 0.03 μmol/mg protein/min. Also, the “Specific activities of selected thioesterases on RS-3-Hydroxybutyryl-CoA” value in data set [2] was found to be 0.441 ± 0.009 μmol/mg protein/min. In addition, the “Specific Activity” value in data set [2] (substrate Acetoacetyl-CoA) is reported as 0.672 ± 0.007^b μmol/mg/min; in data set [2] (substrate Acetyl-CoA), 0.222 ± 0.007^b μmol/mg/min; in data set [2] (substrate Butyryl-CoA) it was 2.9 ± 0.2^b μmol/mg/min; in data set [2] (substrate Crotonyl-CoA), 0.27 ± 0.03^b μmol/mg/min; in data set [2] (substrate RS-3-Hydroxybutyryl-CoA) it was 0.441 ± 0.009^b μmol/mg/min.

B6: FadM: E. coli long-chain acyl-CoA thioesterase (protein, UniProt P77712 1-132, looked up)
Long-chain acyl-CoA …: MQTQIKVRGYHLDVYQHVNNARYLEFLEEARWDGLENSDSFQWMTAHNIAFVVVNININYRRPAVLSDLLTITSQLQQLNGKSGILSQVITLEPEGQVVADALITFVCIDLKTQKALALEGELREKLEQMVK
As to B6, in data set [1], the “Specific activities of selected thioesterases on Decanyl-CoA” value amounted to 0.034 ± 0.003 μmol/mg protein/min. In addition, in data set [2], the “Specific activities of selected thioesterases on Acetoacetyl-CoA” value is listed as 0.042 ± 0.004 μmol/mg protein/min, the “Specific activities of selected thioesterases on Acetyl-CoA” value came to 0.0331 ± 0.0006 μmol/mg protein/min, the “Specific activities of selected thioesterases on Butyryl-CoA” value was 0.027 ± 0.001 μmol/mg protein/min and the “Specific activities of selected thioesterases on Crotonyl-CoA” value amounted to 0.0017 ± 0.0003 μmol/mg protein/min. The “Specific activities of selected thioesterases on RS-3-Hydroxybutyryl-CoA” value in data set [2] was found to be 0.009 ± 0.002 μmol/mg protein/min.
